{
  "source": "patent US20250134975A1",
  "about": "“CANCER VACCINE COMPRISING EPITOPE OF C-MET AND USE THEREOF” (KOREA UNIVERSITY RESEARCH AND BUSINESS FOUNDATION, priority 2022, published 2025)",
  "molecules": {"B1": {"name": "IFN-γ: recombinant mouse IFN-γ, key cytokine of Th1 immunity (protein, UniProt P01580 23-155, looked up)", "Interferon gamma": "HGTVIESLESLNNYFNSSGIDVEEKSLFLDIWRNWQKDGDMKILQSQIISFYLRLFEVLKDNQAISNNISVIESHLITTFFSNSKAKKDAFMSIAKFEVNNPQVQRQAFNELIRVVHQLLPESSLRKRKRSRC"}},
  "key": {"[1]": {"system": "bone marrow monocytes (BMMs)", "test": "Osteoclastogenesis analysis in bone marrow monocytes (TRAP staining)", "type": "cell-based, C3 (1)-Tag mice", "settings": "IFN-γ 50, 100 ng/mL with M-CSF 30 ng/mL and RANKL 100 ng/mL, vs positive control", "procedure": "Primary mouse bone marrow monocytes (BMMs) were isolated from the hind limb bones (two femurs and two tibiae) of 4 to 8 week-old C3 (1)-Tag mice. The mouse BMMs were flushed into a 15 ml tube via 8 ml of a serum-free 2 mM EDTA α-MEM medium. A Lymphocyte Separation Medium (LSM: MP Biomedicals: Catalog No. 50494) was dispensed into a new tube, 8 ml of the flushed BMMs were gently added thereon and centrifuged at 1600 rpm for 20 minutes at room temperature. The isolated BMMs were inoculated at 3×10^5 cells/well in a 48-well plate with 0.5 mL of a medium per well and incubated in α-MEM containing 10% FBS and 1% antibiotics.\nBMMs in a negative control group were treated with M-CSF (30 ng/mL), BMMs in a positive control group were treated with M-CSF and RANKL (100 ng/mL), and BMMs in an experimental group were stimulated by treatment with M-CSF, RANKL, and IFN-γ (50, 100 ng/mL). On days 1, 3, 5, and 7 of culture, the medium was replaced, and each experimental group was treated with M-CSF, RANKL, and IFN-γ. After 9 days of culture, staining was performed using a TRAP staining kit (KT-008, KAMIYA biomedical company, Seattle, WA, USA) after fixing the cells with 10% formalin. For each well, TRAP-positive (TRAP^+) multinucleated cells (TRAP^+ MNC) were counted. All the experiments were independently repeated three times."}, "[2]": {"system": "M6-bone cells", "test": "Western blot of IFN-γ-treated cells", "type": "cell-based, mouse", "settings": "100 ng/ml IFN-γ, 18 hours", "procedure": "M6 and M6-bone cells were stimulated with 100 ng/ml recombinant mouse IFN-γ and cultured in a medium containing 1% FBS for 18 hours. The cells were lysed in a buffered mixture of a PRO-PREP™ protein extraction solution (iNtRON Biotechnology, 17081) and a phosphatase inhibitor cocktail (Gen DEPOT, p3200-001). Protein concentration was measured using the Bradford assay (Bio-rad, 500-0006, Hercules, CA, USA). 30 μg of the protein was separated by SDS-polyacrylamide gel electrophoresis and transferred to a PVDF membrane (10600023), and then the membrane was blocked with Tris-buffered saline containing 0.05% Tween 20 and 5% non-fat milk powder for 1 hour. The PVDF membrane was incubated overnight at 4° C. with primary antibodies. HIF1α (NB100-105, Novusbio), c-MET, Akt (Cat #9272), and p-Akt (Cat #9271) antibodies were purchased from Cell Signaling Technology (Beverly, MA, USA), and β-actin (Cat #A5316) was purchased from Sigma (Saint Louis, MO, USA). Subsequently, a horseradish peroxidase-conjugated secondary antibody was cultured at room temperature for 1 hour. Immunoreactive bands were detected with a chemiluminescent reagent (Cat #RPN2106)."}},
  "note": "“Also recorded” adds a separate entry of the source.",
  "data": [
    {"molecule": "B1", "values": [
      {"measurement": "M-CSF and RANKL-induced osteoclastogenesis", "setting": "[1]", "value": "completely inhibited osteoclastogenesis; also recorded: inhibits"},
      {"measurement": "expression of c-MET and p-Akt (Western blot)", "setting": "[2]", "value": "decreased"}
    ]}
  ]
}
